The text below walks through data of article PMC2863070.

This test has as its target HSV-2 virion protein 22 (VP22), encoded by gene UL49 peptide on HLA-B*07:02 (human). Kind of test: 51Cr release. The settings on record: chains alpha TCRAV38-2 CDR3:beta TCRBV5-1 CDR3.

B1: clone 9.30 (peptide)
chain 1: CAFGRGAQKLVF
chain 2: CATRIGWGTDTQYF
In the case of B1, the EC50 of peptide was found to be 0.11 nM.

B2: clone 9.66 (peptide)
chain 1: CAFGRGAQKLVF
chain 2: CATRIGWGTDTQYF
The molecule B2 registered an EC50 of peptide of 0.1 nM.
